{"source": "the supplement of paper PMC10567573", "parents": {"B1": {"name": "SMG5 (parent)", "chain": "QEKLQVLMAEGLLPAVKVFLDWLR"}, "B2": {"name": "FAM107A (parent)", "chain": "HRRGLGVDSKPELQRVLEHRRRNQ"}}, "data": [{"variants_of": "B1", "experiment": "protein stability index of a GFP-peptide fusion (GPS, HEK-293T) (PSI 1-6); higher = more stable", "settings": "c terminus: a fixed tail appended", "values": [{"variant": "QEKLQVLMAEGLLPAVKVFLDWLY", "note": "[R24Y]", "protein stability index": 1.91}, {"variant": "QEKLQVLMAEGLLPAVKVFLDWLW", "note": "[R24W]", "protein stability index": 1.83}, {"variant": "QEKLQVLMAEGLLPAVKVFLDWLV", "note": "[R24V]", "protein stability index": 1.67}]}, {"variants_of": "B2", "experiment": "protein stability index of a GFP-peptide fusion (GPS, HEK-293T) (PSI 1-6); higher = more stable", "settings": "c terminus: a fixed tail appended", "values": [{"variant": "NRRGLGVDSKPELQRVLEHRRRNQ", "note": "[H1N]", "protein stability index": 4.5}, {"variant": "ERRGLGVDSKPELQRVLEHRRRNQ", "note": "[H1E]", "protein stability index": 4.92}, {"variant": "RRRGLGVDSKPELQRVLEHRRRNQ", "note": "[H1R]", "protein stability index": 4.55}, {"variant": "WRRGLGVDSKPELQRVLEHRRRNQ", "note": "[H1W]", "protein stability index": 3.11}, {"variant": "CRRGLGVDSKPELQRVLEHRRRNQ", "note": "[H1C]", "protein stability index": 3.42}, {"variant": "LRRGLGVDSKPELQRVLEHRRRNQ", "note": "[H1L]", "protein stability index": 4.8}, {"variant": "PRRGLGVDSKPELQRVLEHRRRNQ", "note": "[H1P]", "protein stability index": 2}, {"variant": "TRRGLGVDSKPELQRVLEHRRRNQ", "note": "[H1T]", "protein stability index": 4.04}, {"variant": "KRRGLGVDSKPELQRVLEHRRRNQ", "note": "[H1K]", "protein stability index": 4.53}, {"variant": "YRRGLGVDSKPELQRVLEHRRRNQ", "note": "[H1Y]", "protein stability index": 4.12}, {"variant": "VRRGLGVDSKPELQRVLEHRRRNQ", "note": "[H1V]", "protein stability index": 4.43}, {"variant": "ARRGLGVDSKPELQRVLEHRRRNQ", "note": "[H1A]", "protein stability index": 3.52}, {"variant": "SRRGLGVDSKPELQRVLEHRRRNQ", "note": "[H1S]", "protein stability index": 4.16}, {"variant": "HRRGLGVDSKPEHQRVLEHRRRNQ", "note": "[L13H]", "protein stability index": 4.93}, {"variant": "HRRGLGVDSKPETQRVLEHRRRNQ", "note": "[L13T]", "protein stability index": 5.23}, {"variant": "HRRGLGVDSKPEFQRVLEHRRRNQ", "note": "[L13F]", "protein stability index": 4.75}, {"variant": "HRRGLGVDSKPENQRVLEHRRRNQ", "note": "[L13N]", "protein stability index": 5.21}, {"variant": "HRRGLGVDSKPERQRVLEHRRRNQ", "note": "[L13R]", "protein stability index": 4.14}, {"variant": "HRRGLGVDSKPEGQRVLEHRRRNQ", "note": "[L13G]", "protein stability index": 4.94}, {"variant": "HRRGLGVDSKPEYQRVLEHRRRNQ", "note": "[L13Y]", "protein stability index": 4.95}, {"variant": "HRRGLGVDSKPEMQRVLEHRRRNQ", "note": "[L13M]", "protein stability index": 4}, {"variant": "HRRGLGVDSKPEEQRVLEHRRRNQ", "note": "[L13E]", "protein stability index": 5.77}, {"variant": "HRRGLGVDSKPEVQRVLEHRRRNQ", "note": "[L13V]", "protein stability index": 3.94}, {"variant": "HRRGLGVDSKPECQRVLEHRRRNQ", "note": "[L13C]", "protein stability index": 3.67}, {"variant": "HRRGLGVDSKPEAQRVLEHRRRNQ", "note": "[L13A]", "protein stability index": 4.31}, {"variant": "HRRGLGVDSKPEKQRVLEHRRRNQ", "note": "[L13K]", "protein stability index": 4.97}, {"variant": "HRRGLGVDSKPESQRVLEHRRRNQ", "note": "[L13S]", "protein stability index": 4.93}, {"variant": "HRRGLGVDSKPEDQRVLEHRRRNQ", "note": "[L13D]", "protein stability index": 5.59}, {"variant": "HRRGLGVDSKPEIQRVLEHRRRNQ", "note": "[L13I]", "protein stability index": 4.71}, {"variant": "HRRGLGVDSKPEQQRVLEHRRRNQ", "note": "[L13Q]", "protein stability index": 5.33}, {"variant": "HRNGLGVDSKPELQRVLEHRRRNQ", "note": "[R3N]", "protein stability index": 4.25}, {"variant": "HRWGLGVDSKPELQRVLEHRRRNQ", "note": "[R3W]", "protein stability index": 4.22}, {"variant": "HRMGLGVDSKPELQRVLEHRRRNQ", "note": "[R3M]", "protein stability index": 3.9}, {"variant": "HRKGLGVDSKPELQRVLEHRRRNQ", "note": "[R3K]", "protein stability index": 4.52}, {"variant": "HRCGLGVDSKPELQRVLEHRRRNQ", "note": "[R3C]", "protein stability index": 3.97}, {"variant": "HRGGLGVDSKPELQRVLEHRRRNQ", "note": "[R3G]", "protein stability index": 5.11}, {"variant": "HRSGLGVDSKPELQRVLEHRRRNQ", "note": "[R3S]", "protein stability index": 4.91}, {"variant": "HRVGLGVDSKPELQRVLEHRRRNQ", "note": "[R3V]", "protein stability index": 4.74}, {"variant": "HRQGLGVDSKPELQRVLEHRRRNQ", "note": "[R3Q]", "protein stability index": 3.65}, {"variant": "HRLGLGVDSKPELQRVLEHRRRNQ", "note": "[R3L]", "protein stability index": 4.14}, {"variant": "HRPGLGVDSKPELQRVLEHRRRNQ", "note": "[R3P]", "protein stability index": 4.55}, {"variant": "HRFGLGVDSKPELQRVLEHRRRNQ", "note": "[R3F]", "protein stability index": 3.9}, {"variant": "HRHGLGVDSKPELQRVLEHRRRNQ", "note": "[R3H]", "protein stability index": 4.95}, {"variant": "HRIGLGVDSKPELQRVLEHRRRNQ", "note": "[R3I]", "protein stability index": 4.29}, {"variant": "HRAGLGVDSKPELQRVLEHRRRNQ", "note": "[R3A]", "protein stability index": 4.9}, {"variant": "HRTGLGVDSKPELQRVLEHRRRNQ", "note": "[R3T]", "protein stability index": 4.92}, {"variant": "HREGLGVDSKPELQRVLEHRRRNQ", "note": "[R3E]", "protein stability index": 4.2}, {"variant": "HRRGLGYDSKPELQRVLEHRRRNQ", "note": "[V7Y]", "protein stability index": 4.23}, {"variant": "HRRGLGRDSKPELQRVLEHRRRNQ", "note": "[V7R]", "protein stability index": 4.39}, {"variant": "HRRGLGKDSKPELQRVLEHRRRNQ", "note": "[V7K]", "protein stability index": 4.33}, {"variant": "HRRGLGDDSKPELQRVLEHRRRNQ", "note": "[V7D]", "protein stability index": 4.93}, {"variant": "HRRGLGMDSKPELQRVLEHRRRNQ", "note": "[V7M]", "protein stability index": 3.62}, {"variant": "HRRGLGSDSKPELQRVLEHRRRNQ", "note": "[V7S]", "protein stability index": 4.88}, {"variant": "HRRGLGTDSKPELQRVLEHRRRNQ", "note": "[V7T]", "protein stability index": 4.79}, {"variant": "HRRGLGHDSKPELQRVLEHRRRNQ", "note": "[V7H]", "protein stability index": 2.61}, {"variant": "HRRGLGCDSKPELQRVLEHRRRNQ", "note": "[V7C]", "protein stability index": 3.07}, {"variant": "HRRGLGQDSKPELQRVLEHRRRNQ", "note": "[V7Q]", "protein stability index": 4.95}, {"variant": "HRRGLGFDSKPELQRVLEHRRRNQ", "note": "[V7F]", "protein stability index": 3.42}, {"variant": "HRRGLGADSKPELQRVLEHRRRNQ", "note": "[V7A]", "protein stability index": 3.74}, {"variant": "HKRGLGVDSKPELQRVLEHRRRNQ", "note": "[R2K]", "protein stability index": 3.05}, {"variant": "HPRGLGVDSKPELQRVLEHRRRNQ", "note": "[R2P]", "protein stability index": 4.96}, {"variant": "HCRGLGVDSKPELQRVLEHRRRNQ", "note": "[R2C]", "protein stability index": 4.78}, {"variant": "HYRGLGVDSKPELQRVLEHRRRNQ", "note": "[R2Y]", "protein stability index": 5.39}, {"variant": "HDRGLGVDSKPELQRVLEHRRRNQ", "note": "[R2D]", "protein stability index": 5.11}, {"variant": "HVRGLGVDSKPELQRVLEHRRRNQ", "note": "[R2V]", "protein stability index": 5}, {"variant": "HHRGLGVDSKPELQRVLEHRRRNQ", "note": "[R2H]", "protein stability index": 4.05}, {"variant": "HNRGLGVDSKPELQRVLEHRRRNQ", "note": "[R2N]", "protein stability index": 4.2}, {"variant": "HFRGLGVDSKPELQRVLEHRRRNQ", "note": "[R2F]", "protein stability index": 4.86}, {"variant": "HTRGLGVDSKPELQRVLEHRRRNQ", "note": "[R2T]", "protein stability index": 4.95}, {"variant": "HLRGLGVDSKPELQRVLEHRRRNQ", "note": "[R2L]", "protein stability index": 3.91}, {"variant": "HWRGLGVDSKPELQRVLEHRRRNQ", "note": "[R2W]", "protein stability index": 3.71}, {"variant": "HQRGLGVDSKPELQRVLEHRRRNQ", "note": "[R2Q]", "protein stability index": 4.58}, {"variant": "HERGLGVDSKPELQRVLEHRRRNQ", "note": "[R2E]", "protein stability index": 4.7}, {"variant": "HIRGLGVDSKPELQRVLEHRRRNQ", "note": "[R2I]", "protein stability index": 3.4}, {"variant": "HGRGLGVDSKPELQRVLEHRRRNQ", "note": "[R2G]", "protein stability index": 4.84}, {"variant": "HRRGLGVTSKPELQRVLEHRRRNQ", "note": "[D8T]", "protein stability index": 4.41}, {"variant": "HRRGLGVRSKPELQRVLEHRRRNQ", "note": "[D8R]", "protein stability index": 4.26}, {"variant": "HRRGLGVPSKPELQRVLEHRRRNQ", "note": "[D8P]", "protein stability index": 2.54}, {"variant": "HRRGLGVMSKPELQRVLEHRRRNQ", "note": "[D8M]", "protein stability index": 3.18}, {"variant": "HRRGLGVQSKPELQRVLEHRRRNQ", "note": "[D8Q]", "protein stability index": 3.34}, {"variant": "HRRGLGVNSKPELQRVLEHRRRNQ", "note": "[D8N]", "protein stability index": 3}, {"variant": "HRRGLGVESKPELQRVLEHRRRNQ", "note": "[D8E]", "protein stability index": 4.59}, {"variant": "HRRGLGVYSKPELQRVLEHRRRNQ", "note": "[D8Y]", "protein stability index": 2.41}, {"variant": "HRRGLGVHSKPELQRVLEHRRRNQ", "note": "[D8H]", "protein stability index": 3.74}, {"variant": "HRRGLGVVSKPELQRVLEHRRRNQ", "note": "[D8V]", "protein stability index": 4.07}, {"variant": "HRRGLGVISKPELQRVLEHRRRNQ", "note": "[D8I]", "protein stability index": 3.74}, {"variant": "HRRGLGVFSKPELQRVLEHRRRNQ", "note": "[D8F]", "protein stability index": 2.23}, {"variant": "HRRGLGVKSKPELQRVLEHRRRNQ", "note": "[D8K]", "protein stability index": 3.79}, {"variant": "HRRGLGVASKPELQRVLEHRRRNQ", "note": "[D8A]", "protein stability index": 2.92}, {"variant": "HRRGLGVGSKPELQRVLEHRRRNQ", "note": "[D8G]", "protein stability index": 3.42}, {"variant": "HRRGLGVSSKPELQRVLEHRRRNQ", "note": "[D8S]", "protein stability index": 2.41}]}]}
